{"source": "patent US8512964", "proteins": {"B1": {"name": "myosin light chain interacting protein (Mylip) (protein)", "chain": "MLCYVTRPDAVLMEVEVEAKANGEDCLNQVCRRLGIIEVDYFGLQFTGSKGESLWLNLRNRISQQMDGLAPYRLKLRVKFFVEPHLILQEQTRHIFFLHIKEALLAGHLLCSPEQAVELSALLAQTKFGDYNQNTAKYNYEELCAKELSSATLNSIVAKHKELEGTSQASAEYQVLQIVSAMENYGIEWHSVRDSEGQKLLIGVGPEGISICKDDFSPINRIAYPVVQMATQSGKNVYLTVTKESGNSIVLLFKMISTRAASGLYRAITETHAFYRCDTVTSAVMMQYSRDLKGHLASLFLNENINLGKKYVFDIKRTSKEVYDHARRALYNAGVVDLVSRNNQSPSHSPLKSSESSMNCSSCEGLSCQQTRVLQEKLRKLKEAMLCMVCCEEEINSTFCPCGHTVCCESCAAQLQSCPVCRSRVEHVQHVYLPTHTSLLNLTVI"}}}
{"protein": "B1", "values": [{"measurement": "degradation in the cotransfection assay", "setting": "apoER2", "result": "the VLDLR and apoER2, are both capable of being degraded by Idol in our cotransfection assay"}, {"measurement": "degradation in the cotransfection assay", "setting": "VLDLR", "result": "the VLDLR and apoER2, are both capable of being degraded by Idol in our cotransfection assay"}, {"measurement": "degradation in the cotransfection assay", "setting": "EGFR receptor", "result": "Several other members, including LRP-1, LRP-1b and the EGFR receptor are not"}, {"measurement": "degradation in the cotransfection assay", "setting": "LRP-1", "result": "Several other members, including LRP-1, LRP-1b and the EGFR receptor are not"}, {"measurement": "degradation in the cotransfection assay", "setting": "LRP-1b", "result": "Several other members, including LRP-1, LRP-1b and the EGFR receptor are not"}]}
